According to patent EP4748861A1 (Duality Biologics (Suzhou) Co., Ltd., dated 2025):

Legend:
[1] = biological target: T1, human EGFR (His-Avi Tag, Kactus Biosystem, EGF-HM401) (human, UniProt P00533 25-645); test: SPR, Biacore T200; ratio of affinities
T1 construct: Bought soluble protein used as SPR analyte; also called hEGFR; not shown: His-Avi tag

human EGFR on cells = biological target: T2, human EGFR on cells (human, UniProt P00533 25-1210); test: flow cytometry on EGFR-CT26 cells, PE anti-human IgG Fc
T2 construct: whole, on cells; the cell line is named under assay; also called EGFR-CT26; EGFR/CT26 (EGFR+++, HER3-)

human HER3 on cells = biological target: T3, human HER3 on cells (human, UniProt P21860 20-1342); test: flow cytometry on HER3-CT26 cells, PE anti-human IgG Fc
T3 construct: whole, on cells; Used as target for cells that carry HER3 alone (HER3-CT26) and for the anti-HER3 mAb on tumor lines that carry both receptors; the cell line is named under assay; also called HER3-CT26; HER3/CT26 (EGFR-, HER3+++)

[2] = biological target: T4, monkey HER3 (rhesus HER3, C-His Tag, Kactus Biosystem, HER-CM403) (rhesus monkey, UniProt H9ERZ8 20-643); test: SPR, Biacore T200; antibody captured on ProA chip, antigen as analyte; 1:1 Langmuir fit
T4 construct: Bought soluble protein used as SPR analyte; not shown: C-terminal His tag
T4 sequence (H9ERZ8 entry or part of it): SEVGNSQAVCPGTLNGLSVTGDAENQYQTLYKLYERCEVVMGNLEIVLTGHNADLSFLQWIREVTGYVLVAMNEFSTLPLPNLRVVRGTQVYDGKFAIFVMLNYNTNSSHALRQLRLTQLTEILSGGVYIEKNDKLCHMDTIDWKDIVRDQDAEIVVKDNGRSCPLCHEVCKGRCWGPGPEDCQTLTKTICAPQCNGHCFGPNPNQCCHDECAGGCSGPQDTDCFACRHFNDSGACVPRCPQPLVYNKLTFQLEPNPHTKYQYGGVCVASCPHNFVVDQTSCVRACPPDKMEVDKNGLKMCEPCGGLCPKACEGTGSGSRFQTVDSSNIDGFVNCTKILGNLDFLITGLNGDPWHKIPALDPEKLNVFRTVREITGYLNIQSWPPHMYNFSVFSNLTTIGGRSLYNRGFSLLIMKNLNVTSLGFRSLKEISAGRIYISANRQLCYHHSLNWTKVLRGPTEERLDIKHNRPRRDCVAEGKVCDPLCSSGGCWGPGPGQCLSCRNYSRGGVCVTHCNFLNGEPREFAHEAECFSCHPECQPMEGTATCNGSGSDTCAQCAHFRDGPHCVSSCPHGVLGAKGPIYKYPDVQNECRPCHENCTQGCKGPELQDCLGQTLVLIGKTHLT

[3] = biological target: T1, human EGFR (His-Avi Tag, Kactus …); test: as above
[4] = biological target: T5, human HER3 (His-Avi Tag, Kactus Biosystem, HER-HM403) (human, UniProt P21860 20-643); test: as above
T5 construct: Bought soluble protein used as SPR analyte; also called hHER3; not shown: His-Avi tag

[5] = biological target: T6, monkey EGFR (rhesus EGFR, C-His Tag, Kactus Biosystem, EGF-CM101) (rhesus monkey, UniProt P55245 25-645, limits assumed); test: as above
T6 construct: Bought soluble protein used as SPR analyte; not shown: C-terminal His tag

fold weaker affinity than its affinity for HER3 [1]	fold weaker affinity than the parent EGFR antibody [1]	EC50 (human EGFR on cells)	EC50 (human HER3 on cells)	Kd [2]	koff [2]	kon [2]	Kd [3]	koff [3]	kon [3]	Kd [4]	koff [4]	kon [4]	Kd [5]	koff [5]	kon [5]	Binder
~16 fold	~3 fold	1.9 nM	1.96 nM	0.563 nM	0.000157 s⁻¹	278000 M⁻¹ s⁻¹	9.29 nM	0.00055 s⁻¹	59200 M⁻¹ s⁻¹	0.56 nM	0.00018 s⁻¹	322000 M⁻¹ s⁻¹	11.3 nM	0.000534 s⁻¹	47200 M⁻¹ s⁻¹	DBXT001-01 (bispecific antibody, human IgG1, kappa, H1/L1 are the EGFR arm, H2/L2 the HER3 arm; one arm for each antigen; also called BsAb DBXT001-01; EGFR-HER3 BsAb) heavy 1: not shown light 1: not shown heavy 2: not shown light 2: DIQMTQSPSSLSASVGDRVTITCRASQDISNYLNWYQQKPGKAPKLLIYYTSILHSGVPSRFSGSGSGTDYTFTISSLQPEDIATYFCQQGDTLPPTFGGGTKLEIKSSASTKGPSVFPLAPSSKSTSGGTAALGCLVKDYFPEPVTVSWNSGALTSGVHTFPAVLQSSGLYSLSSVVTVPSSSLGTQTYICNVNHKPSNTKVDKKVEPKSC
			0.28 nM							0.493 nM	0.000379 s⁻¹	768000 M⁻¹ s⁻¹				anti-HER3 mAb (antibody, human IgG1, kappa, V domains shown, expressed in CHO cells; also called HER3 parent mAb; parent HER3 antibody) VH: QVQLQESGPGLVKPSETLSLTCTVSGYSITSAYYWNWIRQPFGKGLEWMGYISYDGRNNFNPSLKNRVTISRDTSKNQFSLKLSSVTAADTAVYYCARDGDYDYFDYWGQGTTVTVSS VL: DIQMTQSPSSLSASVGDRVTITCRASQDISNYLNWYQQKPGKAPKLLIYYTSILHSGVPSRFSGSGSGTDYTFTISSLQPEDIATYFCQQGDTLPPTFGGGTKLEIKR
